2 molecules from patent publication US20150322165A1 (SAMSUNG ELECTRONICS, published 2015) can be followed below.

In assay [1] the target is T1, HER3-Fc (#344-ER, R&D Systems) (UniProt P21860 20-643).
T1 construct: Bought reagent; not shown: Fc part of the bought fusion; not described
In words: SPR (Biacore T100), MEH3-01S captured by human Fab binder on CM5 chip, HER3-Fc injected. As for the experimental part: (§1) The affinity of the anti-c-Met/anti-EGFR/anti-HER3 multispecific antibody prepared in Example 2 to EGFR and HER3 was measured. A human Fab binder (GE Healthcare) was immobilized at the surface of a CM5 chip (#BR-1005-30, GE) according to the manufacturer's specifications. About 90 to 120 RU of the MEH3-01S was captured, and the EGFR-Fc(#344-ER, R&D Systems) or HER3-Fc(#344-ER, R&D Systems) was injected at various concentrations into the captured antibody. 10 mM Glycine-HCl (pH 1.5) solution was injected thereto to regenerate the surface.
(§2) To examine affinity of the antibody, the data obtained from this experiment was fitted using BIAevaluation software (GE Healthcare, Biacore T100 evaluation software).

Assay [2] concerns the target T2, EGFR-Fc (#344-ER, R&D Systems) (UniProt P00533 25-645).
T2 construct: Bought reagent; not shown: Fc part of the bought fusion; not described
In words: SPR (Biacore T100), MEH3-01S captured by human Fab binder on CM5 chip, EGFR-Fc injected. As for the experimental part:
as §1, §2

Assay [3] concerns the target T3, human c-Met/Fc fusion protein (R&D Systems) (human, UniProt P08581 25-932).
T3 construct: Bought reagent, coated on ELISA plates; also called human c-Met/Fc protein; not shown: Fc part of the bought fusion; not described
As to the kind of experiment: ELISA, hybridoma culture on plate-bound human c-Met/Fc fusion protein. As for the experimental part:
The hybridoma cell culture obtained in Reference Example 1.1.2 was added in an amount of 50 μL to each well of the plates and incubated for 1 hour. The cells remaining unreacted were washed out with a sufficient amount of Tris-buffered saline and Tween 20 (TBST). Goat anti-mouse IgG-horseradish peroxidase (HRP) was added to the plates and incubated for 1 hour at room temperature. The plates were washed with a sufficient amount of TBST, followed by reacting the peroxidase with a substrate (OPD). Absorbance at 450 nm was measured on an ELISA reader.

T1 sequence (P21860 20-643 limits assumed): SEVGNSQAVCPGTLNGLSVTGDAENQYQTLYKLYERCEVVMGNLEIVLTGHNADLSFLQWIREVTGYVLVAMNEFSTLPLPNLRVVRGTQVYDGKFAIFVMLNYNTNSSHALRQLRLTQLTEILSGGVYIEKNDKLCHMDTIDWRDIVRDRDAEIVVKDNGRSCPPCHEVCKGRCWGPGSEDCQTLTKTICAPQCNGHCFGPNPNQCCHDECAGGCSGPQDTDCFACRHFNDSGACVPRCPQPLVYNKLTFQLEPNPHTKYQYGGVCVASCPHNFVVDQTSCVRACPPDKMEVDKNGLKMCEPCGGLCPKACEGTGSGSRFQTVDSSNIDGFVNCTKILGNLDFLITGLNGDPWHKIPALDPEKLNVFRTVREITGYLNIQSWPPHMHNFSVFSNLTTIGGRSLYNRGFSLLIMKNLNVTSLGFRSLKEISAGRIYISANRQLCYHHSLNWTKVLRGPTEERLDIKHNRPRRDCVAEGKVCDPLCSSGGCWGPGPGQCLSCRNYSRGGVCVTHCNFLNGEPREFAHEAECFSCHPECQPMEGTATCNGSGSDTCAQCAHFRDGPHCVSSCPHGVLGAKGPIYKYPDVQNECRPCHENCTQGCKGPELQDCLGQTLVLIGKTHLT
T3 sequence (P08581 25-932 limits assumed): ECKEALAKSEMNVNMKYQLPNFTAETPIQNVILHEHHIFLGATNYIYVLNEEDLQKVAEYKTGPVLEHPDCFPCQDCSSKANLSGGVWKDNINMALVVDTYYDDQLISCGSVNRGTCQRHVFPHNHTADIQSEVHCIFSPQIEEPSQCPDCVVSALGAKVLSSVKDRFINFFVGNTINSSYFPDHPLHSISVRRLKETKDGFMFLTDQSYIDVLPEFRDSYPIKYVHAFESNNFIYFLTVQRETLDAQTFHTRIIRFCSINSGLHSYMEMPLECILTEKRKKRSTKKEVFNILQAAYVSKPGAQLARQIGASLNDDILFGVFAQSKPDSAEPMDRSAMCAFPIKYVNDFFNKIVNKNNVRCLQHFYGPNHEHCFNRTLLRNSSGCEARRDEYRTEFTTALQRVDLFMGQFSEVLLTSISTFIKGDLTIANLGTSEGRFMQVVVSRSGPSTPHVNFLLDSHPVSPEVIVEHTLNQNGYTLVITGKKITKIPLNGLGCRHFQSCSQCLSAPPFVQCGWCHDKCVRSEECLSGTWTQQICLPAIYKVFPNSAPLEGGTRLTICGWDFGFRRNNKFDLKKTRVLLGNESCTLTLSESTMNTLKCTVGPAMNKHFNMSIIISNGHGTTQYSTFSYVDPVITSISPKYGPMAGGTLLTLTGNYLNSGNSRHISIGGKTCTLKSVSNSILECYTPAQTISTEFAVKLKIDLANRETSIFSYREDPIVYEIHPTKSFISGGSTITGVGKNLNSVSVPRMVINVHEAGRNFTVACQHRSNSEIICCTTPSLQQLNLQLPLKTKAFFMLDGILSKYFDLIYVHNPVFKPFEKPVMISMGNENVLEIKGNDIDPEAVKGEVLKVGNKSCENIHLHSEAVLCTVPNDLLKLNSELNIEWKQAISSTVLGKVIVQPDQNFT

B1: anti-c-Met/anti-EGFR/anti-HER3 multispecific antibody MEH3-01S (bispecific antibody, human IgG2, kappa)
heavy: EVQLVESGGGLVQPGGSLRLSCAASGFTFTDYYMSWVRQAPGKGLEWLGFIRNKANGYTTEYSASVKGRFTISRDNSKNTLYLQMNSLRAEDTAVYYCARDNWFAYWGQGTLVTVSSASTKGPSVFPLAPCSRSTSESTAALGCLVKDYFPEPVTVSWNSGALTSGVHTFPAVLQSSGLYSLSSVVTVPSSNFGTQTYTCNVDHKPSNTKVDKTVERKCCVECPPCPAPPVAGPSVFLFPPKPKDTLMISRTPEVTCVVVDVSHEDPEVQFNWYVDGVEVHNAKTKPREEQFNSTFRVVSVLTVVHQDWLNGKEYKCKVSNKGLPAPIEKTISKTKGQPREPQVYTLPPSREEMTKNQVSLTCLVKGFYPSDIAVEWESNGQPENNYKTTPPMLDSDGSFFLYSKLTVDKSRWQQGNVFSCSVMHEALHNHYTQKSLSLSPGKGGGGSGGGGSGGGGSEVQLVESGGGLVQPGGSLRLSCAASGFTLSGDWIHWVRQAPGKCLEWVGEISAAGGYTDYADSVKGRFTISADTSKNTAYLQMNSLRAEDTAVYYCARESRVSFEAAMDYWGQGTLVTVSSGGGGSGGGGSGGGGSDIQMTQSPSSLSASVGDRVTITCRASQNIATDVAWYQQKPGKAPKLLIYSASFLYSGVPSRFSGSGSGTDFTLTISSLQPEDFATYYCQQSEPEPYTFGCGTKVEIK
light: DIQMTQSPSSLSASVGDRVTITCKSSQSLLASGNQNNYLAWYQQKPGKAPKMLIIWASTRVSGVPSRFSGSGSGTDFTLTISSLQPEDFATYYCQQSYSRPYTFGQGTKVEIKRTVAAPSVFIFPPSDEQLKSGTASVVCLLNNFYPREAKVQWKVDNALQSGNSQESVTEQDSKDSTYSLSSTLTLSKADYEKHKVYACEVTHQGLSSPVTKSFNRGEC
notes: DL11f scFv fused to the C-terminus of the heavy chain (Fc) of the anti-c-Met IgG2 antibody SAIT301
In the case of B1, in assay [1], the Kd was below 10 pM, the koff is below 1.6e-05 s⁻¹ and the kon came to 3.4e+06 M⁻¹ s⁻¹. In assay [2], this molecule showed a Kd of 180 pM, an off-rate constant (koff) of 0.00011 s⁻¹ and a kon of 1e+06 M⁻¹ s⁻¹.

B2: AbF46, a mouse antibody to c-Met (antibody, V domains shown)
VH: EVKLVESGGGLVQPGGSLRLSCATSGFTFTDYYMSWVRQPPGKALEWLGFIRNKANGYTTEYSASVKGRFTISRDNSQSILYLQMDTLRAEDSATYYCARDNWFAYWGQGTLVTVSA
VL: DILMTQSPSSLTVSAGEKVTMSCKSSQSLLASGNQNNYLAWHQQKPGRSPKMLIIWASTRVSGVPDRFIGSGSGTDFTLTINSVQAEDLAVYYCQQSYSAPLTFGAGTKLELK
notes: Tested as hybridoma culture supernatant in the selection ELISA; also called monoclonal antibody of hybridoma KCLRF-BP-00220
For the molecule B2, in assay [3], the binding result is on record as “binds”.
